In patent US20260097113A1 (Pfizer, published 2026):

Key:
[1] = target: RSV A + RSV B bivalent composition (RSV subtype A; RSV subtype B); test: AM14 prefusion assay relative to standard; RSV A + RSV B 240 µg/mL each, 2% sucrose + 4% mannitol; post-lyo 2 months at 5°C
[2] = target: RSV A + RSV B bivalent composition (RSV subtype A; RSV subtype B); test: AM14 prefusion assay relative to standard; RSV A + RSV B 240 µg/mL each, 2% sucrose + 4% mannitol; post-lyo T0

Sequence of AM14 (trimeric prefusion specific antibody of the AM14 ELISA) (VH): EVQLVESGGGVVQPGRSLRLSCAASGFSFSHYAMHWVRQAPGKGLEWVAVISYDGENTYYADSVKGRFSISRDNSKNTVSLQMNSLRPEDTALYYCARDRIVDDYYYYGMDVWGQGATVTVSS
Sequence of AM14 (trimeric prefusion specific antibody of the AM14 ELISA) (VL): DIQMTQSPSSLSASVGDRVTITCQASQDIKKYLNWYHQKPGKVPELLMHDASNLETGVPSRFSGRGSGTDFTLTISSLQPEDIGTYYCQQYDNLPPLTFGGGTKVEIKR

AM14 (trimeric prefusion specific antibody of the AM14 ELISA)
AM14 Prefusion Content (%), relative to standard [1]: 116% | AM14 Prefusion Content (%), relative to standard [2]: 81%
